According to patent publication US20240352102:

What was measured:
[1] = test system: tau isoform 1N3R (3R tau, MAPT) (Homo sapiens), P10636-4; test: SPR; conditions: 50 mM HEPES, 25 mM NaCl, 0.1% Tween-20, pH 7.4; poly(A) length not restated for 3R
[2] = test system: tau isoform 1N4R (4R tau, MAPT) (Homo sapiens), P10636-7; test: SPR; conditions: 50 mM HEPES, 25 mM NaCl, 0.1% Tween-20, pH 7.4
Chain of tau isoform 1N4R (4R tau, MAPT) (Homo sapiens), P10636-7 (P10636 other isoform, or with tags, fused parts or gaps): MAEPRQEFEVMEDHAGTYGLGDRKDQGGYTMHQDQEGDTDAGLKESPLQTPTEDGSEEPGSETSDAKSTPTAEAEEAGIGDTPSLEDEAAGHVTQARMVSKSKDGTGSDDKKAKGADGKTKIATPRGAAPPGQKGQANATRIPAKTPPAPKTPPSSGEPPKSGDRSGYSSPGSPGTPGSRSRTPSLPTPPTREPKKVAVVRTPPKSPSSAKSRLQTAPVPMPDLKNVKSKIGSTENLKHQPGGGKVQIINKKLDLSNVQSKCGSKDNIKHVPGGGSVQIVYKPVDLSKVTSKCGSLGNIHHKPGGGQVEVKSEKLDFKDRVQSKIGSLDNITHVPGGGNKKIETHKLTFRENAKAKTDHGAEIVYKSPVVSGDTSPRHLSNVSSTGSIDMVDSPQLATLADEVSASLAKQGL

Chain of tau isoform 1N3R (3R tau, MAPT) (Homo sapiens), P10636-4 (P10636 other isoform, or with tags, fused parts or gaps): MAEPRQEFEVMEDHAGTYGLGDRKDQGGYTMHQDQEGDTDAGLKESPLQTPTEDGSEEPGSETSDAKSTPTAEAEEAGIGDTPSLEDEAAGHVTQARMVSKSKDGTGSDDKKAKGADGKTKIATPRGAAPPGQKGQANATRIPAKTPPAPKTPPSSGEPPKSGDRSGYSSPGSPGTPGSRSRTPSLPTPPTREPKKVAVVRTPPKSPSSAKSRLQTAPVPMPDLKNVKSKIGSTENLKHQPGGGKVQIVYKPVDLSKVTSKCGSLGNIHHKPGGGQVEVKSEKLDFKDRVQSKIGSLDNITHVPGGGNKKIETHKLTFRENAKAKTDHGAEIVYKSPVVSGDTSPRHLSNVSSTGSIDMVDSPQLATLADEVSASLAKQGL

| Substance | Kd [1] [nM] | Kd ([2]; streptavidin chip, poly(A)20 length from FIG. 1B trace) [nM] | Kd [2] [nM] |
| --- | --- | --- | --- |
| A [biotin poly(A)20 RNA] | 8.3 | 7.2 |  |
| biotin tRNA-Lys |  |  | > 30 |
